This note sets out measurements from US20030229203A1.

For test [1], the target named is T1, CCR1 (UniProt P32246).
T1 sequence (looked up): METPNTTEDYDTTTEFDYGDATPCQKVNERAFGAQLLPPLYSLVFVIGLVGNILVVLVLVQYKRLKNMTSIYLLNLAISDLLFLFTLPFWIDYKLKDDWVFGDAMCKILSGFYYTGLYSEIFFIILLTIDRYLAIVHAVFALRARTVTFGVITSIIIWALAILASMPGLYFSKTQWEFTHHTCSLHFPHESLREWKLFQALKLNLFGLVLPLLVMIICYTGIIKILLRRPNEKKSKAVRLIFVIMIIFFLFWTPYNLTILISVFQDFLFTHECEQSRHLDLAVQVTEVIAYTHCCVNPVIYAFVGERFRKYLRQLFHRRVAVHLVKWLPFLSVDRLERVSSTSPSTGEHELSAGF
The experiment in a line: cell-based or functional assay.

Test [2] addresses CCR5 (human) (UniProt P51681). The experiment in a line: cell-based or functional assay.

RANTES(3-68), sequence (P13501 26-91 limits assumed): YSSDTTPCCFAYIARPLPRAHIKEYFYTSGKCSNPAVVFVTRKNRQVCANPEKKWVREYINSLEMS
RANTES(1-68), sequence (P13501 24-91): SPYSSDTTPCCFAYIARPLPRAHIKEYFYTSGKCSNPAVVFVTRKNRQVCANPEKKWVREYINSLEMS
CCR5 (human), sequence (P51681 whole entry): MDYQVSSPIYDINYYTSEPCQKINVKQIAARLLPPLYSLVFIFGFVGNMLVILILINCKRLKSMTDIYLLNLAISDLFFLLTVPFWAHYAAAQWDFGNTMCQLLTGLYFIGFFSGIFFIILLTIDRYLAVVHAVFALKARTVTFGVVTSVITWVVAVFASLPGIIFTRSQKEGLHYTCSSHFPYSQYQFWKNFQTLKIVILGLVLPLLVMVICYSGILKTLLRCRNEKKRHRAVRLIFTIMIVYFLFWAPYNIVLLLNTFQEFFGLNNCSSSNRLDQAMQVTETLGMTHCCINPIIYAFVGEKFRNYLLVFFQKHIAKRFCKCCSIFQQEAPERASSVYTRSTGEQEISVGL

In the case of “RANTES(1-68) (from UniProt P13501 24-91) (ligand)”, in test [1], the concentration at which the Ca2+ response saturated (Fura-2, HOS-CD4 cells expressing CCR1) was determined as 50 nM. The concentration sufficient to induce a maximal Ca2+ response (Fura-2, HEK-293 cells expressing CCR5) in test [2] was 10 nM.
For the substance “RANTES(3-68) (from UniProt P13501 26-91) (ligand)”, in test [1], the amount required to produce a detectable Ca2+ response, relative to RANTES(1-68) (Fura-2, HOS-CD4 cells expressing CCR1) (times that for RANTES(1-68)) is 100 and the concentration at which the Ca2+ response saturated (Fura-2, HOS-CD4 cells expressing CCR1) was above 200 nM. Besides, the concentration sufficient to induce a maximal Ca2+ response (Fura-2, HEK-293 cells expressing CCR5) in test [2] amounted to 10 nM.
